Data from the DeepSol protein solubility set.

test: soluble on expression in E. coli; label from the status in PepcDB or PDB records

| Sequence | soluble on expression in E. coli |
| --- | --- |
| MSLTSPLAYSYTHTGTEATTGYFSCEPPQDMTMEQALAWLAVHPMDDFMHRHLLRRLGEMSPEELAKLGPTLQASPVLEALFCELCALAPEGSPLRATLTEILEGLSTTSEASPAAIAERLGAYTPLPYIGWAALPDRELHQAWCRLFSDNIQNHRMLPHPEDNDLAPLYADEEPATRPEPPITAVHARLAAAPGTPWSRPPAHETAQKALEVLVENDIIAGVEMRHEASLSPIALLRRWRLDLGVRNGGLAYTLRGEATTYGRGLSLADARASYAMEMVERASSYANVGPEGILGLTRPQPLRKARHSELVAEGLAVLDPNAIPLEVPYRDQPIHWLTGHASEANGNAPTLVPAQMVYLFCNLDEVALFTSSSSTGLASGNTLAEAKVAALTEILERDAEATTPYDRARCFRPATDDPLLRSLLEDYAARGIQIQMQDMTTEWGIPCYTCFVMSSRGKLARGTGAGLDGRRAAISALTETPYPYPRGGASGPGLRGLPERKLEDLPSFTLESPERNLALLEETLASTGHHPVYVELTRADLGLPVVKALIPGLELTADFDDCTRISRRLYRNYLRMGYDEGHHHHHH | soluble |
| MSLTSQITSNSPVKWKRRTRHDTCGKITLFALQKTMYFDNLSTKKHNLDNLELERSCFEISETMDSSLSIITYSMSVHSLQKNGEPMKQEKQQFIKTDWTIDMINRRQFEKYAIDILTATKDIHRGGWVERIDNKAWQYVRVYENGDIEVLITLQIIRFHKYFDTPVWLQFNPNHLLPADYVQLDHVMKYVDHSHLTRADLANDIYNINLQRYDFGLFGVTRDIYRSLSGDLETRYWGRRKSERQIRLYDKMREMKKHGKADDIPDGITDWWRLEFQFRGGKVESWQEEVEGHHHHHH | not soluble |
| MSLTSTAFAPRSLAPARITAVRVAPLLGESPQGGWSHEIKADDSVHALIALHTDAGISGYGSVFTNGALVQAAADVLTPLLLGENALEPDRIAEKLHQNTFWMGRGGSITHTISGIDIAMWDILGQATGLSVGRLLGGRHRDRVQPYCSLLMDMPERMEAVIAPHRAAGFRAFKIGWGPFGRRGDAGLDRAIIDAARTAVGTDAQLLVDAGASDAYWPNGLKWAMNTAAMLADYDVGWFEEALPPDAIEDFIALRRMSPVPIAGGEVLTRRQSFAPWLVRGAFDIVQPDVTKVGGISEQRRIAWMARDFGIRYVGHGWNTAFGLAADLQLAAAMPDCTLVEYIGGSAYVDRLTTRPFALDAEGMLAIPDLPGLGVSPDPALLARYTPDPEKFFSAEGHHHHHH | soluble |
| MSLTTKYIFVTGGVVSSLGKGITAASLGRLLKNRGMKVTIQKFDPYINVDPGTMSPYQHGEVFVTDDGAETDLDLGHYERFIDINLNKNSNVTTGKIYSSVLKKERRGDYLGGTVQVIPHVTNEIKERVFRAGRETNADVVITEIGGTVGDIESLPFLEAIRQIKSDIGVDNVMYIHCTLIPYLAAAGEMKSKPTQHSVKELRSLGIQPNVIVVRTEKPVPEEMKEKIALFCDIRKDSVIEARDADTLYEVPLDLQAQNLDEIVCDHLNLSCQEADMTEWKSLVEKVKNLSGLVKIALVGKYVALPDAYLSVAEALRHAGYAFDADINIKWVDSEDVTAENVAEQLQGVDGILVPGGFGDRGIEGKIEAIRYAREQKIPFLGICLGMQLASIEFARNVLGLEGAHSAEINPDTPHPIIDLLPEQKDVEDMGGTLRLGLYPCKLKNGTLAQSAYNDQVIYERHRHRYEFNNQYREQMEAKGFMFSGTSPDGRLVEIVELGDHPFFIASQFHPEFVSRPTRPQPLFREFIQASLRKEGHHHHHH | soluble |
| MSLTTMLEVAKRAGVSKATVSRVLSGNGYVSQETKDRVFQAVEESGYRPNLLARNLSAKSTQTLGLVVTNTLYHGIYFSELLFHAARMAEEKGRQLLLADGKHSAEEERQAIQYLLDLRCDAIMIYPRFLSVDEIDDIIDAHSQPIMVLNRRLRKNSSHSVWCDHKQTSFNAVAELINAGHQEIAFLTGSMDSPTSIERLAGYKDALAQHGIALNEKLIANGKWTPASGAEGVEMLLERGAKFSALVASNDDMAIGAMKALHERGVAVPEQVSVIGFDDIAIAPYTVPALSSVKIPVTEMIQEIIGRLIFMLDGGDFSPPKTFSGKLIRRDSLIAPSREGHHHHHH | soluble |
| MSLTTSYHIGNVVCAIIEREGRFLIARRPLGKHLARKWEFPGSKVETGESEAEALERELIEELGVRMEIVERLMPVEHCYADRSLRLIAFHCRIAAGAPNAGEHEELRWIDIGEADDYDFPEADLPILAEYRQKIAASVQSEGHHHHHH | not soluble |
| MSLTTTPANVLASVDLGSNSFRLQICENNNGQLKVIDSFKQMVRFAAGLDEQKNLSAASQEQALDCLAKFGERLRGFRPEQVRAVATNTFRVAKNIADFLPKAEAALGFPIEIIAGREEARLIYTGVIHTLPPGGGKMLVIDIGGGSTEFVIGSTLNPDITESLPLGCVTYSLRFFQNKITAKDFQSAISAARNEIQRISKNMRREGWDFAVGTSGSAKSIRDVLAAEMPQEADITYKGMRALAERIIEAGSVKKAKFENLKPERIEVFAGGLAVMMAAFEEMKLDRMTVTEAALRDGVFYDLIGRGLNEDMRGQTVAEFQHRYHVSLNQAKRTAETAQTFMDSLCHAKNVTVQELALWQQYLGRAAALHEIGLDIAHTGYHKHSAYILENADMPGFSRKEQTILAQLVIGHRGDMKKMSGIIGTNEMLWYAVLSLRLAALFCRSRQDLSFPKNMQLRTDTESCGFILRIDREWLERHPLIADALEYESVQWQKINMPFKVEAVEGHHHHHH | soluble |
| MSLTYHIKTIGNNIDQIALDEIGEGFLVNQVSEAESDAFICRAQPFHDYEFSKALLAIGRAGAGFNNIPIEKCASKGIVVFNAPGGNANAVKELVLSMMIFGTRNLKPANKWLTGQKGDDNTIDGAVEHGKKAFSGSEISGKTLGVIGLGNIGSKVANDAQRLGMRVIGYDPYLSIEHAWNLSHHVKRVNDLAEIFEKADYITVHTPATDETTKMLNWKNLSKCKKGVILLNYARDEITDKEAVLKAIDEGIVRFFGTDFGSEKFYHHPQVFLTPHLGGSTAEASLNCTRMALDSVQTYLKTGEIINSVNFPRVLQELNTPYRVTLINKNVPNVVAQISLAVAAENINIANIVNRGQGDYAYTLLDLDEKDEGKLAALVSRFEAADNIIRVRLIENQSLEGHHHHHH | soluble |
| MSLTYINKEKVIKNLSYAIYLLKKMNFTLIPEVGSNIAESLPFPKDFKDVAALTGRIIKNKLGGFYIVGDIEFGASEHIAKIILSASKFNPEIRACMNIKYDGGLIKLLKDKFAVSSFDRKEEPPNVSTMEWGTKIACEKFGGVPDIIYDRGGEGKEPMIRVLGRDAIEVVKKVEVIQKIYNTLEGHHHHHH | soluble |
| MSLVEKQSALESKARSWLIERGVEIDDIAELVLFLQQKYHPGLELDICRQNVEHVLRKREVQNAVLTGIQLDVMAEKGELVQPLQNIISADEGLYGVDEILALSIVNVYGSIGFTNYGYIDKVKPGILAKLNEHDGIAVHTFLDDIVGAIAAAAASRLAHSYHDDIVNEGGSHHHHHH | soluble |
| MSLVEMVNRPYASAFEAFAVKNPDVLCLSADLTSSCEIDGFRDRHPDQFLSLGMAEQNMMSFAGGLGLAGYRPFLHSFGVFLYRRPYDQLMASVAYPRRKVRLMGFLPGITTPGGMTHQAIEDVAVMRSIPNMSILETGDATEVESICEAADSIDGPVYCRVLRGSIPRLFDTPIRVGEMRELALGADVLVVTSGIATEEALRARDALSNAGVSIRHLHIHTIKPFNEQALLDHIGSVSKGVVVLENHVITGGVGSLVAEIMADNGVGKPLVRLGLNDTYAHGGSRGYLMKHYGLDAGALVRGIERIIGASTGIDEEALASARVDAVHSAVKAEAEGHHHHHH | not soluble |
| MSLVISIRRSRHEEGEELVAIWCRSVDATHDFLSAEYRTELEDLVRSFLPEAPLWVAVNERDQPVGFMLLSGQHMDALFIDPDVRGCGVGRVLVEHALSMAPELTTNVNEQNEQAVGFYKKVGFKVTGRSEVDDLGKPYPLLNLAYVGAEGGSHHHHHH | soluble |
| MSLVLAYYSGYAGNYAALTRYAASFNAVAVDFYNITAQGAVTGNGDPAPNDAISFLLGRKIPAYGCVSNVDGNGNWSADIAHAVSTSAQSQAVANLVKFAQDKRFSGINVDFEAVAQGDRNNFSHFIQVLGRALHAKGLKLIVSVPAFSAKDENHPANYGYDLRALGAAADYLQIMSYDEAIPAWDPGPVAGSDWMEDDLDYAVERVPAAKILNGIPAYGYDWKRPGDGGMLYWKDTQALIARYGAQPRYDAGTHSLTFNYGAADGSRHTVWTENARSVALKASLVNAYGLGGTSLYALGMEDEGHHHHHH | soluble |
| MSLVLGNAWLVLADRVIEHGWVAIADGVIAEVGEGDAPNGAKDMHGDLVMPGLVELHTDHLEAHYTPRPKVQWNPVAAVVSYDGQLATCGITTVLDSLRVWREEGAEEVDGQAIVLAGAISTARDAQLLRADHFLHLRCEIPMPNVVAEAKELIDRPDIRLMSLMDHTPGQRQFRDEEKLRDYYRGKGAGMTDAELDVMFARRVYCKENYADANMRAIVELAHRYEIPLASHDDTTPENVADAIRDRVAVAEFPTTLEAARELHQAGIDILMGAPNVVRGGSHSGNIAAIDLAHEGLLDILSSDYIPSSLLIAALQLPMRAPGIDLAAAIRTVTKAPAEAVGLNDRGEISKGKRADLIRVHVAHDVPAVRSVWREGQRVAEGHHHHHH | soluble |
| MSLVLNDLLICCRQLEHDRATERKKEVEKFKRLIRDPETIKHLDRHSDSKQGKYLNWDAVFRFLQKYIQKETECLRIAKPNVSASTQASRQKKMQEISSLVKYFIKCANRSK | not soluble |
| MSLVNIEFYESVAASEAKFINDTLIPQFEAEYPGIHVTFVNVGSEDVSKDILAMEASGHVGPIVAGQDNLEIGQLIYSSHGNVLMNLTAMSPALMPSSLIPAASNLVQYEQKVFGGIYFFPFRGNVPLVFYNKTALSDAGISSPPANYTQLLQDAMTIHSKTGKDPIMIQGASTNGGHTGSSTATEMYQMMVQFGGNPLYLNDTGDIHAVEMLYNLSAYFSPDFKTGYWGSYRGLAVGNYSILDYQWPYVYNILTASPYNMTNSTLGVYPGPAGPVNANHVLGGDVLFIPKGATNIPSLEAFIRFLLGAQAQRETLLNLSWVAINQNAYRNLPKSESVIFTALEQAIATGVFLRNPTPWITEWQVIFCNDVFNPLFVTHSKTYSDIPSLLSYAHSQMYSYIAANYGQANATLYNNPNAYAPISEGHHHHHH | not soluble |
| MSLVPRVMSTQHPDNARIPFFAASEVLNGEDEVREAYYVFSHFKCDEQMWDFEGKEADAHIVRKLLSSYYDFFSSRPLGKDFRLTMRVPNPEIEKGEAKLLAETLEMIPRSYDYVRSLGIEHPPIFEVILPMTRSAEEVMKVHAFYRDFVAGKGRFELLGEKVSDWLGDFLPEEIKVIPLFEDRDSLMRAAEISERYAEWAELDELRVFLARSDPAMNYGFVAATIYVKKALYDLSQLGISTYPILGVGSCPFRGGFSPKNLSVLDEFPSVYTFTVQSAFKYDYEFGDVRRAIKRAKEAARRKSDYVDEEHLQVAEKLKDGYRRRIAKIAEIVNRISSRIPRRRMRKLHVGLFGYSRGEEIKLPRAITFCASLYSIGLPSEIIGIAEMSDKDYEAVCEVFKNFDGMMESAMSLFNPESLKIVDLSMDFERAKELFGYEPDERHLEKTNEIIKQIDGDIKNLVVEAGILRGFLGEGHHHHHH | not soluble |
| MSLVTIVAPMDEILERAHVVALPMRVKFRGIMVREAVLFDGPKGWGEFSPFVEYGVQEAAQWLRCGLEMAFQGPPPMIRDAVEVNATIPAVSPDQVPEILARYPGCTTVKVKVAEGDDAARVAMVREVLPDARIRVDANRGWTVDQAVAASKHLGELEYMEQPCASVAELAELRRRISVPIAADESIRRVSDPYEVARLHAADVAVVKAAPLGGPRNIVDIAKFYQQRGLSLTVASALDTGVGMNAGIAVAAAIDSNPAGLATQRLFVEDVTEPRTIVDGKMSVEMLAPDPARLAEFEVTGPRRDWWLDRVRGALECLHDFIPEGHHHHHH | not soluble |
